The values below come from publication PMC11429640.

In this experiment the target is high-stability mutant of the MMP-9 catalytic domain (MMP9CAT*) lacking the fibronectin-like domain (human) (UniProt P14780). Briefly: enzyme activity inhibition assay (fluorogenic substrate, fit to the Morrison equation); apparent Ki (Ki^app); varying concentrations of N-TIMP2 incubated with 0.26 nM MMP-9CAT* for 60 min at 37 °C in 50 mM Tris-HCl, 0.15 M NaCl, 10 mM CaCl2, 0.02% Brij-35 pH 7.5; then 7.5 µM fluorogenic substrate; at least three assays for each protein.
Chain of UniProt P14780 (P14780 other isoform, or with tags, fused parts or gaps mutant): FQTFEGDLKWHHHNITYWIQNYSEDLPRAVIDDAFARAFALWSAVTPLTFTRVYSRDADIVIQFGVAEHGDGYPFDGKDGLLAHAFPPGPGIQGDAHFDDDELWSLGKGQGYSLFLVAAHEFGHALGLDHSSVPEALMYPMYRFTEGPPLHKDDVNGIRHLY

With “WT N-TIMP2 containing internal FLAG-tag, c-myc-tag, and His-tag (domain or fragment)”, the Ki amounted to 0.32 nM.
